According to paper PMC5693625:
Like-named read-outs stand apart in the source and are kept apart here.

How the values were obtained:
Test in all cases: functional binding isotherm
DDX3X [1] = target: T1, DDX3X (Homo sapiens, UniProt O00571 1-662)
DDX3X [2] = target: T1, DDX3X; remark: listed apart in the source
DDX3X [3] = target: T1, DDX3X; remark: listed apart in the source

T1 sequence (O00571 whole entry): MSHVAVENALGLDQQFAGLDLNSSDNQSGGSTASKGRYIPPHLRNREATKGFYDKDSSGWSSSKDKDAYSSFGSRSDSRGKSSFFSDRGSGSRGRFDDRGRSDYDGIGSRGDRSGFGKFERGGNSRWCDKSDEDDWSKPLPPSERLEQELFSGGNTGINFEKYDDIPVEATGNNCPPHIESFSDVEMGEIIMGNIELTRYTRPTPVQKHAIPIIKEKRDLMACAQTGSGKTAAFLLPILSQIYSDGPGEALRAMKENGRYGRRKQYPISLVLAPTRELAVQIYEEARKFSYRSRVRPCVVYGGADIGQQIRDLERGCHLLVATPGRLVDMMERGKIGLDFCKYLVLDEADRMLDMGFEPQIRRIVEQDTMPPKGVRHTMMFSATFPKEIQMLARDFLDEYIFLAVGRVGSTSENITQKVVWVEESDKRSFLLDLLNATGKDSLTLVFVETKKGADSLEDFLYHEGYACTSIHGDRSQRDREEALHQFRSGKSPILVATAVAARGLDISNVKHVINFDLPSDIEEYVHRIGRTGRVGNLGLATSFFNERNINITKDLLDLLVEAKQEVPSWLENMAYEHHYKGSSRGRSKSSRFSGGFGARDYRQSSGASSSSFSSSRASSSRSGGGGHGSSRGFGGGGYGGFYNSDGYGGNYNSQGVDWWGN

Binder | apparent K (half saturation) (DDX3X [1]) [nM] | apparent K (half saturation) (DDX3X [2]) [nM] | apparent K (half saturation) (DDX3X [3]) [nM]
16 bp RNA, 15 nt 3' tail (dsRNA) RNA 1: CCGUCUUUACGGUGCU RNA 2: AGCACCGUAAAGACGGUAAAACAAAACAAAA | 298 ± 4 | – | –
19 bp RNA, 25 nt 5' tail (R19-5'c/R44-5'c) (dsRNA) RNA 1: CAGAGGAGCAGAGGGAGCA RNA 2: AAACUACGACUACAGUAACUACGACUGCUCCCUCUGCUCCUCUG | – | 166 ± 18 | –
16 bp RNA, 25 nt 3' tail (R16-3'c/R41-3'c) (dsRNA) RNA 1: CCGUCUUUACGGUGCU RNA 2: AGCACCGUAAAGACGGUAAAACAAAACAAAACAAAACAAAA | 118 ± 5 | – | –
13 bp RNA, 25 nt 5' tail (R13-5'a/R38-5'a) (dsRNA) RNA 1: CGAAAUGCCACGA RNA 2: AAAACAAAACAAAACAAAACAAAAUUCGUGGCAUUUCG | – | – | 139 ± 21
16 bp RNA, 25 nt 5' tail (R16-5'a/R41-5'a) (dsRNA) RNA 1: AGCACCGUAAAGACGC RNA 2: AAAACAAAACAAAACAAAACAAAAUGCGUCUUUACGGUGCU | 127 ± 20 | 119 ± 35 | –
